{"source": "patent US6808930B1", "about": "“Therapeutic agents” (priority 1997, dated 2004)", "key": {"[1]": {"system": "L1210 cells", "experiment": "Nuclear uptake of biotinylated protein, confocal microscopy", "assay_type": "cell-based, murine", "experimental": "(§1) To detect intracellular protein, the cells were fixed at various times after addition of 0.3 mg/ml of biotinylated MAL for 5 min in phosphate-buffered paraformaldehyde (4%) (B. Sander et al., Immunol. Rev. (1991) 119: 65-92) at room temperature, washed in PBS, and permeabilized with 0.1% saponin in PBS. FITC conjugated streptavidin (diluted 1:100 in 0.1% saponin) was added and the cells were incubated for 30 min at room temperature. The cells were washed twice in PBS-saponin and once in PBS, mounted on a glass slide and analysed in a Bio-Rad 1024 laser scanning confocal equipment (Bio Rad Laboratories, Hemel-Hempstead, UK) attached to a Nikon Diaphot inverted microscope."}, "[2]": {"system": "HRTEC cells", "experiment": "Nuclear uptake of biotinylated protein, confocal microscopy", "assay_type": "cell-based, human", "conditions": "biotinylated MAL (1 mg/ml elsewhere in the source)", "experimental": "as §1, with “To detect intracellular protein, the cells were fixed at various times after addition of 0.3 mg/ml of biotinylated MAL for 5 min in phosphate-buffered paraformaldehyde (4%) (B.” left out"}, "[3]": {"system": "L1210 cells", "experiment": "Subcellular fractionation of cells exposed to 125I-labelled protein", "assay_type": "cell-based, murine", "experimental": "(§2) The intracellular distribution of MAL was further analysed in cells exposed to ^125I-labelled MAL with ^[…] α-lactalbumin and IgG as controls (FIG. 4). Subcellular fractions were prepared after mechanic disruption of the cells and the amount of radiolabelled MAL in each fraction was determined in relation to the total cell-associated radioactivity measured prior to disruption of the cells. Fraction P1 contained mostly cell nuclei, P2 contained plasma-Golgi-, ER-membranes and mitochondria, P3 contained small vesicles and the supernatant. Fraction S contained the cytosolic proteins. The purity of the fractions was determined by quantitation of specific markers (DNA, alkaline phosphatase, RNA and catalase).\n(§3) Specifically, cellular subfractionation was performed as described (J. Graham., Isolation of subcellular organelles and membranes., p161-1019. In D. Rickwood ed., Centrifugation, a practical approach, 2nd ed. IRL Press, Washington D.C.). L1210, A549 or HRTEC cells in suspension (3×10^6 cells/ml, 100 μla were incubated with 1×10^6 cpr of ^125I-labelled MAL, ALA or IgG for various times at 37° C. The cells were washed three times with ice-cold PBS and the supernatants were discarded. The cells were suspended in 500 μl of homogenisation buffer (10 mM Tris-HCl, pH 7.8, 5 mM MgCl2 and 2 mM CaCl2 for L1210 cells and 0.15M NaCl, 2 mM EDTA, pH 7.5 for A549 cells), and homogenised by 50 strokes in a Dounce homogenizer (Thomas, Philadelphia, USA) with pestle size 415. Sucrose was added to a final concentration of […] and the homogenate was centrifuged at 100×g for 25 min at RT. The first pellet contained nuclei, large mitochondria and large sheets of plasma membrane. The remaining supernatant was further centrifuged at 12 000×g for 30 min at 4° C. resulting in a second pellet containing mitochondria endoplasmic reticulum, plasma membrane and cytoplasmic organelles. The supernatant was finally centrifuged at 150,000×g for 2 h at 4° C. resulting in a pellet containing small vesicles, endoplasmic reticulum and a supernatant containing cytosolic proteins."}, "[4]": {"system": "HRTEC cells", "experiment": "Cell surface binding of biotinylated protein, flow cytometry", "parameters": "species or system human", "conditions": "biotinylated MAL, 30 min; third of three cell types (HRTEC by order)", "experimental": "MAL, human α-lactalbumin (HLA) and immunoglobulin G were biotinylated according to the manufacturer's instructions or labelled with ^125I with the lactoperoxidase method. Proteins were dissolved in PBSA-T buffer (30 mM Na2HPO4, 120 mM NaCl, pH 7.4, with 0.1% NaAzid, 0.05% Tween-20) and 25 μl of protein (25 μg) was incubated with 2 μl of ^125([…]), 2 μl of lactoperoxidase (2.5 mg/ml) and 2 μl of H2O2 (diluted 1:2000 in PBS) for 2 min at room temperature. The reaction was stopped by the addition of 500 μl of PBSA-T. The labelled protein was purified on a PD-10 column. 500 μl fractions in PBSA-T were eluted and fractions containing radioactivity were stored at […]. […] L1210, A549 and HRTEC cells (3×10^6 cells/ml, 50 μl) were incubated in suspension with 50 μl of biotinylated MAL, ALA or BSA for various times at 37° C. The cells were washed with PBS by centrifugation at 320×g for 10 min and the supernatant was discarded. FITC-conjugated streptavidin (diluted 1:50 in PBS) was added and the cells were incubated for 30 min at room temperature. The cells were washed by centrifugation as above, suspended in 300 μl PBS and the surface fluorescence was analysed by flow cytometry on a Coulter Epics Profile II flow cytometer (Coulter Inc.), equipped with a 488 nm argon laser. Green fluorescence was detected with a 525 nm band pass filter. […]"}, "[5]": {"system": "A549 cells", "experiment": "Subcellular fractionation of cells exposed to 125I-labelled protein", "assay_type": "cell-based, human", "experimental": "as §2, §3"}, "[6]": {"system": "HRTEC cells", "experiment": "Subcellular fractionation of cells exposed to 125I-labelled protein", "assay_type": "cell-based, human", "experimental": "as §2, §3"}, "[7]": {"system": "L1210 cells", "experiment": "Cell viability by trypan blue exclusion", "assay_type": "cell-based, murine", "conditions": "L1210 cell line", "experimental": "Remaining cells were analysed for DNA fragmentation."}}}
{"molecule": "MAL: protein complex from human milk casein containing oligomeric forms of α-lactalbumin; the apoptosis-inducing fraction (protein, UniProt P00709 20-142, looked up, oligomeric form from milk casein, protein complex from human milk casein containing oligomeric forms of α-lactalbumin; the apoptosis-inducing fraction) Alpha-lactalbumin: KQFTKCELSQLLKDIDGYGGIALPELICTMFHTSGYDTQAIVENNESTEYGLFQISNKLWCKSSQVPQSRNICDISCDKFLDDDITDDIMCAKKILDIKGIDYWLAHKALCTEKLEQWLCEKL", "values": [{"measurement": "cells with nuclear staining", "setting": "[1]; 0.3 mg/ml biotinylated protein, after about 2 hours (first detected)", "result": "about 10%"}, {"measurement": "cells with nuclear staining", "setting": "[1]; 0.3 mg/ml, after 1 hour", "result": 10, "unit": "%"}, {"measurement": "cytoplasmic staining", "setting": "[1]; biotinylated MAL", "result": "Cytoplasmic staining was not observed"}, {"measurement": "nuclear uptake", "setting": "[2]", "result": "Nuclear uptake was not observed"}, {"measurement": "share of total cell associated radioactivity in nuclear fraction (P1)", "setting": "[3]; 6 h, 125I-labelled", "result": "about 78%"}, {"measurement": "total cell associated radioactivity", "setting": "[3]; 6 h, 125I-labelled, denominator in brackets", "result": 44000}, {"measurement": "radioactivity in nuclear fraction (P1)", "setting": "[3]; 6 h, 125I-labelled, numerator in brackets", "result": 34200}, {"measurement": "radioactivity in cytosolic fraction", "setting": "[3]; final time-point", "result": 4500, "unit": "cpm"}, {"measurement": "radioactivity in pellet 2", "setting": "[3]; final time-point", "result": 4500, "unit": "cpm"}, {"measurement": "radioactivity in pellet 3", "setting": "[3]; final time-point", "result": 800, "unit": "cpm"}, {"measurement": "share of radioactivity in cytosolic fraction", "setting": "[3]; final time-point", "result": 10, "unit": "%"}, {"measurement": "share of radioactivity in pellet 2", "setting": "[3]; final time-point", "result": 10, "unit": "%"}, {"measurement": "share of radioactivity in pellet 3", "setting": "[3]; final time-point", "result": 2, "unit": "%"}, {"measurement": "fluorescence intensity of cell surface binding", "setting": "[4]", "result": "8.5 times that of the streptavidin control"}, {"measurement": "total cell associated radioactivity", "setting": "[5]; 24 h, denominator in brackets", "result": 27000}, {"measurement": "radioactivity in nuclear fraction (P1)", "setting": "[5]; 24 h, numerator in brackets", "result": 13700}, {"measurement": "radioactivity in cytosolic fraction", "setting": "[5]; final time-point", "result": 6800, "unit": "cpm"}, {"measurement": "radioactivity in pellet 2", "setting": "[5]; final time-point", "result": 5100, "unit": "cpm"}, {"measurement": "radioactivity in pellet 3", "setting": "[5]; final time-point", "result": 1400, "unit": "cpm"}, {"measurement": "share of radioactivity in cytosolic fraction", "setting": "[5]; final time-point", "result": 25, "unit": "%"}, {"measurement": "share of radioactivity in pellet 2", "setting": "[5]; final time-point", "result": 19, "unit": "%"}, {"measurement": "share of radioactivity in pellet 3", "setting": "[5]; final time-point", "result": 5, "unit": "%"}, {"measurement": "share of total cell associated radioactivity in nuclear fraction (P1)", "setting": "[6]; 24 h, 125I-labelled", "result": 16, "unit": "%"}, {"measurement": "total cell associated radioactivity", "setting": "[6]; 24 h, denominator in brackets", "result": 14000}, {"measurement": "radioactivity in nuclear fraction (P1)", "setting": "[6]; 24 h, numerator in brackets", "result": 2200}, {"measurement": "radioactivity in cytosolic fraction", "setting": "[6]; final time-point", "result": 8600, "unit": "cpm"}, {"measurement": "radioactivity in pellet 2", "setting": "[6]; final time-point", "result": 2100, "unit": "cpm"}, {"measurement": "radioactivity in pellet 3", "setting": "[6]; final time-point", "result": 1100, "unit": "cpm"}, {"measurement": "share of radioactivity in cytosolic fraction", "setting": "[6]; final time-point", "result": 61, "unit": "%"}, {"measurement": "share of radioactivity in pellet 2", "setting": "[6]; final time-point", "result": 15, "unit": "%"}, {"measurement": "share of radioactivity in pellet 3", "setting": "[6]; final time-point", "result": 8, "unit": "%"}, {"measurement": "sensitivity to MAL-induced apoptosis", "setting": "[7]", "result": "highly sensitive"}]}
